Reference: article PMC10786891, “Massively parallel profiling of RNA-targeting CRISPR-Cas13d”

Target: T1, EsCas13d, nuclease-dead (Eubacterium siraeum, UniProt B0MS50, R295A;H300A;R849A;H854A)
T1 sequence: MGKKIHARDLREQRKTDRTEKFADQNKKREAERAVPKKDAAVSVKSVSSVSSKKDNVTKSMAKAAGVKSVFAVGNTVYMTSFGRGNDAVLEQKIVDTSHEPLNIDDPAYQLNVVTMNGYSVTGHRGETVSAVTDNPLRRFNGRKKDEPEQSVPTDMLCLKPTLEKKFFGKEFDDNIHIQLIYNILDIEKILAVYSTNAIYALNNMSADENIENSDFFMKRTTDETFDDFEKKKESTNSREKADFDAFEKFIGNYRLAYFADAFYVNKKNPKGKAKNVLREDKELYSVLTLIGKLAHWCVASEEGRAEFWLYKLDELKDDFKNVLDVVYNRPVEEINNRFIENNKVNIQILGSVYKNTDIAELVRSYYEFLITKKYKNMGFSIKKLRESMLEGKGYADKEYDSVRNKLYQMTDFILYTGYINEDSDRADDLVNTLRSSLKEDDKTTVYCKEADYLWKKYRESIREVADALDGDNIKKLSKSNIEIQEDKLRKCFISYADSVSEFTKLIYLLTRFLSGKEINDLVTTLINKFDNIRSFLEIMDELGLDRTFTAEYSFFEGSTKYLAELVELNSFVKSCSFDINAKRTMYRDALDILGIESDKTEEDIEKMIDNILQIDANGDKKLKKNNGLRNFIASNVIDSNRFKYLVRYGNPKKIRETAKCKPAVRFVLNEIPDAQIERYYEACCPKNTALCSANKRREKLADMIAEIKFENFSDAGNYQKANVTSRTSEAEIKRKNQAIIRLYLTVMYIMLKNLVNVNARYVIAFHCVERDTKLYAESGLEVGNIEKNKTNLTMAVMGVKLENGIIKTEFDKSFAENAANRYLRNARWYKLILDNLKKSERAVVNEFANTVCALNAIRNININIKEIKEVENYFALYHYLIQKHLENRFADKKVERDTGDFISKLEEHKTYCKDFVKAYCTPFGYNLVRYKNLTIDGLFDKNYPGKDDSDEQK
Test: crRNA (strand 1, pre-loaded); Mg2+; 40 mM Tris-HCl pH 7.5, 150 mM NaCl, 6 mM MgCl2, 1 mM DTT, 0.1% Tween-20, 0.2 mg/ml BSA; 25 C; 10 min per concentration, then washed
Conditions: tags: His6-TwinStrep-SUMO cleaved; N-terminal SNAP kept (SNAP-Surface 488); label: 3' end held by stalled T7 RNA polymerase

B1: target 1 insG 3' of 8,insU 3' of 5 (mixed)
RNA 1: CACCCGUGCAAAAAUGCAGGGGUCUAAAACUGAGCGGAUAACCUCUCUAUGG
RNA 2: GGGAAUGGAUCCACAUCUACGAAUUCGUACCAUAGAGAGGUUAUGCCGUCUCACCGAGAUCGGAAGAGCACACGU
Work on B1 yielded a Kd of 0.0157 ± 0.0011 µM.

B2: target 1 insA 3' of 21,insU 3' of 4 (mixed)
RNA 1: CACCCGUGCAAAAAUGCAGGGGUCUAAAACUGAGCGGAUAACCUCUCUAUGG
RNA 2: GGGAAUGGAUCCACAUCUACGAAUUCGUACCAAUAGAGAGGUUAUCCGCUUCACCGAGAUCGGAAGAGCACACGU
B2 was tested, and the Kd was 0.0125 ± 0.001 µM.

B3: target 1 insG 3' of 22,insA 3' of 13 (mixed)
RNA 1: CACCCGUGCAAAAAUGCAGGGGUCUAAAACUGAGCGGAUAACCUCUCUAUGG
RNA 2: GGGAAUGGAUCCACAUCUACGAAUUCGUACGCAUAGAGAGAGUUAUCCGCUCACCGAGAUCGGAAGAGCACACGU
Binder B3 has a Kd of 0.0115 ± 0.0007 µM.

B4: target 1 insG 3' of 22,insA 3' of 5 (mixed)
RNA 1: CACCCGUGCAAAAAUGCAGGGGUCUAAAACUGAGCGGAUAACCUCUCUAUGG
RNA 2: GGGAAUGGAUCCACAUCUACGAAUUCGUACGCAUAGAGAGGUUAUCCGACUCACCGAGAUCGGAAGAGCACACGU
B4 gave a Kd of 0.0231 ± 0.0022 µM.

B5: target 1 C4U (mixed)
RNA 1: CACCCGUGCAAAAAUGCAGGGGUCUAAAACUGAGCGGAUAACCUCUCUAUGG
RNA 2: GGGAAUGGAUCCACAUCUACGAAUUCGUACCAUAGAGAGGUUAUCCGUUCACCGAGAUCGGAAGAGCACACGU
B5 gave a Kd of 0.03 ± 0.004 µM.

B6: target 1 C2U (mixed)
RNA 1: CACCCGUGCAAAAAUGCAGGGGUCUAAAACUGAGCGGAUAACCUCUCUAUGG
RNA 2: GGGAAUGGAUCCACAUCUACGAAUUCGUACCAUAGAGAGGUUAUCCGCUUACCGAGAUCGGAAGAGCACACGU
Work on B6 yielded a Kd of 0.0097 ± 0.0007 µM.

B7: target 1 U8G,U11A (mixed)
RNA 1: CACCCGUGCAAAAAUGCAGGGGUCUAAAACUGAGCGGAUAACCUCUCUAUGG
RNA 2: GGGAAUGGAUCCACAUCUACGAAUUCGUACCAUAGAGAGGAUAGCCGCUCACCGAGAUCGGAAGAGCACACGU
B7 was tested, and the Kd was 0.0276 ± 0.0022 µM.

B8: target 1 C2U,U11A (mixed)
RNA 1: CACCCGUGCAAAAAUGCAGGGGUCUAAAACUGAGCGGAUAACCUCUCUAUGG
RNA 2: GGGAAUGGAUCCACAUCUACGAAUUCGUACCAUAGAGAGGAUAUCCGCUUACCGAGAUCGGAAGAGCACACGU
For B8, the Kd was 0.0295 ± 0.0035 µM.

B9: target 1 A1G,G15A (mixed)
RNA 1: CACCCGUGCAAAAAUGCAGGGGUCUAAAACUGAGCGGAUAACCUCUCUAUGG
RNA 2: GGGAAUGGAUCCACAUCUACGAAUUCGUACCAUAGAAAGGUUAUCCGCUCGCCGAGAUCGGAAGAGCACACGU
In the case of B9, the Kd is reported as 0.0111 ± 0.0005 µM.

B10: target 1 G15A (mixed)
RNA 1: CACCCGUGCAAAAAUGCAGGGGUCUAAAACUGAGCGGAUAACCUCUCUAUGG
RNA 2: GGGAAUGGAUCCACAUCUACGAAUUCGUACCAUAGAAAGGUUAUCCGCUCACCGAGAUCGGAAGAGCACACGU
B10 gave a Kd of 0.0108 ± 0.0004 µM.

B11: target 1 C7A,G17U (mixed)
RNA 1: CACCCGUGCAAAAAUGCAGGGGUCUAAAACUGAGCGGAUAACCUCUCUAUGG
RNA 2: GGGAAUGGAUCCACAUCUACGAAUUCGUACCAUAUAGAGGUUAUACGCUCACCGAGAUCGGAAGAGCACACGU
With B11 the Kd was 0.034 ± 0.006 µM.

B12: target 1 A1G,C2U (mixed)
RNA 1: CACCCGUGCAAAAAUGCAGGGGUCUAAAACUGAGCGGAUAACCUCUCUAUGG
RNA 2: GGGAAUGGAUCCACAUCUACGAAUUCGUACCAUAGAGAGGUUAUCCGCUUGCCGAGAUCGGAAGAGCACACGU
Work on B12 yielded a Kd of 0.0087 ± 0.0007 µM.

B13: target 1 G12U,C22U (mixed)
RNA 1: CACCCGUGCAAAAAUGCAGGGGUCUAAAACUGAGCGGAUAACCUCUCUAUGG
RNA 2: GGGAAUGGAUCCACAUCUACGAAUUCGUAUCAUAGAGAGUUUAUCCGCUCACCGAGAUCGGAAGAGCACACGU
For B13, the Kd was 0.0217 ± 0.0028 µM.

B14: target 1 U8C,C21U (mixed)
RNA 1: CACCCGUGCAAAAAUGCAGGGGUCUAAAACUGAGCGGAUAACCUCUCUAUGG
RNA 2: GGGAAUGGAUCCACAUCUACGAAUUCGUACUAUAGAGAGGUUACCCGCUCACCGAGAUCGGAAGAGCACACGU
Binder B14 has a Kd of 0.0096 ± 0.0005 µM.

B15: target 1 insC 3' of 9,insA 3' of 6 (mixed)
RNA 1: CACCCGUGCAAAAAUGCAGGGGUCUAAAACUGAGCGGAUAACCUCUCUAUGG
RNA 2: GGGAAUGGAUCCACAUCUACGAAUUCGUACCAUAGAGAGGUUACUCCAGCUCACCGAGAUCGGAAGAGCACACGU
In the case of B15, the Kd is reported as 0.014 ± 0.0004 µM.

B16: target 1 del7,del13 (mixed)
RNA 1: CACCCGUGCAAAAAUGCAGGGGUCUAAAACUGAGCGGAUAACCUCUCUAUGG
RNA 2: GGGAAUGGAUCCACAUCUACGAAUUCGUACCAUAGAGAGUUAUCGCUCACCGAGAUCGGAAGAGCACACGU
B16 was tested, and the Kd was 0.0156 ± 0.0013 µM.

B17: target 1 insA 3' of 15,insA 3' of 10 (mixed)
RNA 1: CACCCGUGCAAAAAUGCAGGGGUCUAAAACUGAGCGGAUAACCUCUCUAUGG
RNA 2: GGGAAUGGAUCCACAUCUACGAAUUCGUACCAUAGAGAAGGUUAAUCCGCUCACCGAGAUCGGAAGAGCACACGU
For B17, the Kd was 0.0097 ± 0.0006 µM.

B18: target 1 C6A,C22G (mixed)
RNA 1: CACCCGUGCAAAAAUGCAGGGGUCUAAAACUGAGCGGAUAACCUCUCUAUGG
RNA 2: GGGAAUGGAUCCACAUCUACGAAUUCGUAGCAUAGAGAGGUUAUCAGCUCACCGAGAUCGGAAGAGCACACGU
Binder B18 has a Kd of 0.039 ± 0.005 µM.

B19: target 1 insU 3' of 17,insG 3' of 16 (mixed)
RNA 1: CACCCGUGCAAAAAUGCAGGGGUCUAAAACUGAGCGGAUAACCUCUCUAUGG
RNA 2: GGGAAUGGAUCCACAUCUACGAAUUCGUACCAUAGUAGGAGGUUAUCCGCUCACCGAGAUCGGAAGAGCACACGU
For B19, the Kd was 0.044 ± 0.005 µM.

B20: target 1 del2,del16 (mixed)
RNA 1: CACCCGUGCAAAAAUGCAGGGGUCUAAAACUGAGCGGAUAACCUCUCUAUGG
RNA 2: GGGAAUGGAUCCACAUCUACGAAUUCGUACCAUAGGAGGUUAUCCGCUACCGAGAUCGGAAGAGCACACGU
B20 gave a Kd of 0.082 ± 0.018 µM.

B21: target 1 insC 3' of 14,insA 3' of 10 (mixed)
RNA 1: CACCCGUGCAAAAAUGCAGGGGUCUAAAACUGAGCGGAUAACCUCUCUAUGG
RNA 2: GGGAAUGGAUCCACAUCUACGAAUUCGUACCAUAGAGACGGUUAAUCCGCUCACCGAGAUCGGAAGAGCACACGU
Binder B21 has a Kd of 0.055 ± 0.008 µM.

B22: target 1 insA 3' of 19,insU 3' of 17 (mixed)
RNA 1: CACCCGUGCAAAAAUGCAGGGGUCUAAAACUGAGCGGAUAACCUCUCUAUGG
RNA 2: GGGAAUGGAUCCACAUCUACGAAUUCGUACCAUAAGUAGAGGUUAUCCGCUCACCGAGAUCGGAAGAGCACACGU
In the case of B22, the Kd is reported as about 0.038 µM.

B23: target 1 insU 3' of 20,insU 3' of 7 (mixed)
RNA 1: CACCCGUGCAAAAAUGCAGGGGUCUAAAACUGAGCGGAUAACCUCUCUAUGG
RNA 2: GGGAAUGGAUCCACAUCUACGAAUUCGUACCAUUAGAGAGGUUAUCUCGCUCACCGAGAUCGGAAGAGCACACGU
For B23, the Kd was 0.0286 ± 0.0015 µM.

B24: target 1 C2G,A9U (mixed)
RNA 1: CACCCGUGCAAAAAUGCAGGGGUCUAAAACUGAGCGGAUAACCUCUCUAUGG
RNA 2: GGGAAUGGAUCCACAUCUACGAAUUCGUACCAUAGAGAGGUUUUCCGCUGACCGAGAUCGGAAGAGCACACGU
B24 showed a Kd of 0.0087 ± 0.001 µM.
